The target of the data set is NS5A domain I-Δh (HCV NS5A N-terminal domain) (Hepatitis C virus) (UniProt Q9WMX2). Briefly: EMSA. To be noted: approximate Kd, non-specific RNA sequence; text says NS5A, construct taken as the purified domain I-Δh. On the technique in general: Mobility shift assays separate free from complexed probe on a gel.
Chain of UniProt Q9WMX2 (Q9WMX2 1997-2188, tags or fused parts left off): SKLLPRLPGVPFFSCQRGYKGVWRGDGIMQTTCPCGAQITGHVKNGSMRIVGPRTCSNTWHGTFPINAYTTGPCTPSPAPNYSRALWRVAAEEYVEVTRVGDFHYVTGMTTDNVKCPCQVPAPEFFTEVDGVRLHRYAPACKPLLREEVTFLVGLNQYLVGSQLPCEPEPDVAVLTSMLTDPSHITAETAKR

Turning to “non-specific ssRNA (plasmid polylinker transcript)”, the Kd (as a rule, the constant that tells how readily two partners part at equilibrium) was determined as 10 nM.

(Values after US20090004111.)
